Source: patent publication US7662583B2, “Bioreactor containing cells expressing glycosyltransferase nucleic acids isolatable from Arabidopsis” (The University of York, priority 2003, dated 2010)

Tests used:
[1] = UGT enzyme reaction with quercetin (recombinant UGTs, HPLC); type: biochemical, Arabidopsis; conditions: 0.5 mM quercetin, 5 mM UDP-glucose, 30° C.; for Specific activity (nkat/mg protein) 3-O-glc: quercetin glucosylated at 3-OH; for Specific activity (nkat/mg protein) 3′-O-glc: quercetin glucosylated at 3′-OH; for Specific activity (nkat/mg protein) 4′-O-glc: quercetin glucosylated at 4′-OH; for Specific activity (nkat/mg protein) 7-O-glc: quercetin glucosylated at 7-OH
Procedure, shortened: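 Recombinant Arabidopsis UGTs (2 μg) incubated with 0.5 mM quercetin and 5 mM UDP-glucose in 100 mM Tris-HCl pH 7.0 at 30 °C for 1 h. Quercetin glucosides separated from aglycone by reverse-phase C18 HPLC (acetonitrile gradient, 0.1% TFA), detected at 370 nm.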

[2] = Whole-cell biocatalyst assay, E. coli expressing UGT in culture medium; type: cell-based; conditions: E. coli, 2x YT medium, 0.1 mM IPTG, 0.1 mM quercetin, 24 h; for Culture medium (μg/ml in supernatant) 3-O-glc: no added UDP-glucose
Procedure: FIG. 14 Whole-cell biocatalyst assay using UGT71C1. E. coli cells expressing recombinant were used in the biocatalyst assay. After incubation with 0.1 mM quercetin and 0.1 mM IPTG, cells were collected by centrifugation, extracted with 80% methanol and both the cell extracts (pellet) and culture medium (supernatant) were analysed using HPLC. (A) Changes in the combined amounts of aglycone/glucoside over a time-course of 0-48 h. (B) Changes in the level of different glucosides and aglycone in the culture medium over the same time-course.
Using the foundation established in the preceding example, we went on to investigate the potential of E. coli expressing plant UGTs as whole-cell biocatalysts to synthesise glucosides of quercetin. In the first instance, we used E. coli grown in 75 ml of standard culture medium. […] Table 2 describes results in which 7 different UGTs are expressed in E. coli and the identity and quantity of different glucosides recovered in the medium were analysed by HPLC. […] There was considerable variation in the level of different glucosides synthesised by the cells, although even under these non-optimised conditions, each of the four monoglucosides and two di-O-glucosides could be formed.

Row | Molecule | Specific activity (nkat/mg protein) 3-O-glc [1] | Specific activity (nkat/mg protein) 3′-O-glc [1] | Specific activity (nkat/mg protein) 4′-O-glc [1] | Specific activity (nkat/mg protein) 7-O-glc [1] | Culture medium (μg/ml in supernatant) 7-O-glc [2] [µg/mL] | Culture medium (μg/ml in supernatant) 3-O-glc [2] [µg/mL] | Culture medium (μg/ml in supernatant) 4′-O-glc [2] [µg/mL]
1 | UGT84B1: Arabidopsis recombinant glycosyltransferase (protein, UniProt O22182 1-456, looked up) UDP-glycosyltransferase 84B1: MGSSEGQETHVLMVTLPFQGHINPMLKLAKHLSLSSKNLHINLATIESARDLLSTVEKPRYPVDLVFFSDGLPKEDPKAPETLLKSLNKVGAMNLSKIIEEKRYSCIISSPFTPWVPAVAASHNISCAILWIQACGAYSVYYRYYMKTNSFPDLEDLNQTVELPALPLLEVRDLPSFMLPSGGAHFYNLMAEFADCLRYVKWVLVNSFYELESEIIESMADLKPVIPIGPLVSPFLLGDGEEETLDGKNLDFCKSDDCCMEWLDKQARSSVVYISFGSMLETLENQVETIAKALKNRGLPFLWVIRPKEKAQNVAVLQEMVKEGQGVVLEWSPQEKILSHEAISCFVTHCGWNSTMETVVAGVPVVAYPSWTDQPIDARLLVDVFGIGVRMRNDSVDGELKVEEVERCIEAVTEGPAAVDIRRRAAELKRVARLALAPGGSSTRNLDLFISDITIA | — (Activity lower than 0.02 nkat/mg protein has been considered as trace activity and is not shown in the Table.) | — (Activity lower than 0.02 nkat/mg protein has been considered as trace activity and is not shown in the Table.) | — (Activity lower than 0.02 nkat/mg protein has been considered as trace activity and is not shown in the Table.) | 0.14 nkat/mg protein | 4.83 | – | –
2 | UGT78D2: Arabidopsis recombinant glycosyltransferase, FIG. 5 (protein, listed as Arabidopsis thaliana) MTKPSDPTRDSHVAVLAFPFGTHAAPLLTVTRRLASASPSTVFSFFNTAQSNSSLFSSGDEADRPANIRVYDIADGVPEGYVFSGRPQEAIELFLQAAPENFRREIAKAETEVGTEVKCLMTDAFFWFAADMATEINASWIAFWTAGANSLSAHLYTDLIRETIGVKEVGERMEETIGVISGMEKIRVKDTPEGVVFGNLDSVFSKMLHQMGLALPRATAVFINSFEDLDPTLTNNLRSRFKRYLNIGPLGLLSSTLQQLVQDPHGCLAWMEKRSSGSVAYISFGTVMTPPPGELAAIAEGLESSKVPFVWSLKEKSLVQLPKGFLDRTREQGIVVPWAPQVELLKHEATGVFVTHCGWNSVLESVSGGVPMICRPFFGDQRLNGRAVEVVWEIGMTIINGVFTKDGFEKCLDKVLVQDDGKKMKCNAKKLKELAYEAVSSKGRSSENFRGLLDAVVNII | 31.60 nkat/mg protein | — (Activity lower than 0.02 nkat/mg protein has been considered as trace activity and is not shown in the Table.) | — (Activity lower than 0.02 nkat/mg protein has been considered as trace activity and is not shown in the Table.) | — (Activity lower than 0.02 nkat/mg protein has been considered as trace activity and is not shown in the Table.) | – | 6.83 | –
3 | UGT89B1: Arabidopsis recombinant glycosyltransferase (protein, UniProt Q9C9B0 1-473, looked up) Flavonol …: MKVNEENNKPTKTHVLIFPFPAQGHMIPLLDFTHRLALRGGAALKITVLVTPKNLPFLSPLLSAVVNIEPLILPFPSHPSIPSGVENVQDLPPSGFPLMIHALGNLHAPLISWITSHPSPPVAIVSDFFLGWTKNLGIPRFDFSPSAAITCCILNTLWIEMPTKINEDDDNEILHFPKIPNCPKYRFDQISSLYRSYVHGDPAWEFIRDSFRDNVASWGLVVNSFTAMEGVYLEHLKREMGHDRVWAVGPIIPLSGDNRGGPTSVSVDHVMSWLDAREDNHVVYVCFGSQVVLTKEQTLALASGLEKSGVHFIWAVKEPVEKDSTRGNILDGFDDRVAGRGLVIRGWAPQVAVLRHRAVGAFLTHCGWNSVVEAVVAGVLMLTWPMRADQYTDASLVVDELKVGVRACEGPDTVPDPDELARVFADSVTGNQTERIKAVELRKAALDAIQERGSSVNDLDGFIQHVVSLGLNK | 2.05 nkat/mg protein | — (Activity lower than 0.02 nkat/mg protein has been considered as trace activity and is not shown in the Table.) | 3.38 nkat/mg protein | 3.22 nkat/mg protein | 2.36 | 1.08 | 0.94
